The record followed here is publication PMC4683529, “Cancer associated missense mutations in BAP1 catalytic domain induce amyloidogenic aggregation: A new insight in enzymatic inactivation” (Scientific Reports, 2015).

The data set concerns the molecule itself. As to the kind of experiment: ultracentrifugation of heated protein and dot blot of the pellet with A11 and OC antibodies; 7 uM protein heated at 37 °C for 1 h, then 14 h at 25 °C; 1,00,000 x g for 60 min (2 h for OC).

B1: BAP1 catalytic domain (1–240), wild type (domain or fragment, human, UniProt Q92560 1-240, looked up)
chain: MNKGWLELESDPGLFTLLVEDFGVKGVQVEEIYDLQSKCQGPVYGFIFLFKWIEERRSRRKVSTLVDDTSVIDDDIVNNMFFAHQLIPNSCATHALLSVLLNCSSVDLGPTLSRMKDFTKGFSPESKGYAIGNAPELAKAHNSHARPEPRHLPEKQNGLSAVRTMEAFHFVSYVPITGRLFELDGLKVYPIDHGPWGEDEEWTDKARRVIMERIGLATAGEPYHDIRFNLMAVVPDRRIK
notes: BRCA1 associated protein 1 (BAP1), human, N-terminal catalytic (UCH) domain, residues 1-240, subcloned into pGEX-6P-1 from Flag-HA-BAP1; also called WT 240; BAP1 (1–240); source: E. coli Rosetta 2, purified (standard GST purification protocol)
For B1, the binding result is on record as “binds”.

B2: BAP1 catalytic domain (1–240) F81V (domain or fragment, human, UniProt Q92560 1-240, looked up)
chain: MNKGWLELESDPGLFTLLVEDFGVKGVQVEEIYDLQSKCQGPVYGFIFLFKWIEERRSRRKVSTLVDDTSVIDDDIVNNMVFAHQLIPNSCATHALLSVLLNCSSVDLGPTLSRMKDFTKGFSPESKGYAIGNAPELAKAHNSHARPEPRHLPEKQNGLSAVRTMEAFHFVSYVPITGRLFELDGLKVYPIDHGPWGEDEEWTDKARRVIMERIGLATAGEPYHDIRFNLMAVVPDRRIK
notes: BAP1, human, catalytic domain residues 1-240 with the cancer-associated mutation F81V; source: E. coli Rosetta 2, purified (standard GST purification protocol)
In the case of B2, the binding result was “binds”.
